Data as given in PMC3458707 (Chemistry & biology, 2012).
Where two headings read alike, the source gives them in different places.

How the values were obtained:
Assay in all cases: native MS
[1] = target: T1, Recombinant firefly luciferase (firefly, UniProt P08659 1-550 = luciferase)
[2] = target: T1, Recombinant firefly luciferase; remark: listed apart in the source
[3] = target: T2, mitochondrial pig heart malate dehydrogenase (pig, UniProt P00346 25-338)
T2 sequence (looked up): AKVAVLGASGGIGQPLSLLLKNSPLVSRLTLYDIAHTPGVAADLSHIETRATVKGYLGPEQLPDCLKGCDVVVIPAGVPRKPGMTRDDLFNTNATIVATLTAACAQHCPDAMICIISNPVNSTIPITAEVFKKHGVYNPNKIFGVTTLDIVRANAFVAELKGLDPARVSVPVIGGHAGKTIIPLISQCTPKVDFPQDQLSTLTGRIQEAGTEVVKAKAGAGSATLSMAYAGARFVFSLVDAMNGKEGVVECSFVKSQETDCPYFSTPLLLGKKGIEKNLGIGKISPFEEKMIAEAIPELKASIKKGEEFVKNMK

[4] = target: T3, pig heart citrate synthase (pig, UniProt P00889 28-464)
T3 sequence (looked up): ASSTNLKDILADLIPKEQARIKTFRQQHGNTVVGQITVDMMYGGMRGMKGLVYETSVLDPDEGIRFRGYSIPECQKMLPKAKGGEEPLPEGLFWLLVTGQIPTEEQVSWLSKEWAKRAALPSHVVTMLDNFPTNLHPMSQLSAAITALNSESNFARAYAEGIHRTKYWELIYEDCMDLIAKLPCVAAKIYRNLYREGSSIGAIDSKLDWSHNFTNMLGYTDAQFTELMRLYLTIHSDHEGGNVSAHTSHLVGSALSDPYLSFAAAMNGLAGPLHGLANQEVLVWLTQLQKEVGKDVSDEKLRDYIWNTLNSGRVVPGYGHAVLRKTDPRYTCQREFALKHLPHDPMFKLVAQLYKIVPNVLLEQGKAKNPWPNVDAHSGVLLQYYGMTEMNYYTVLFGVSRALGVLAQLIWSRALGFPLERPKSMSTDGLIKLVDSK

[5] = target: T1, Recombinant firefly luciferase; remark: listed apart in the source
[6] = target: T2, mitochondrial pig heart malate …; remark: listed apart in the source
[7] = target: T3, pig heart citrate synthase; remark: listed apart in the source

T1 sequence (P08659 whole entry): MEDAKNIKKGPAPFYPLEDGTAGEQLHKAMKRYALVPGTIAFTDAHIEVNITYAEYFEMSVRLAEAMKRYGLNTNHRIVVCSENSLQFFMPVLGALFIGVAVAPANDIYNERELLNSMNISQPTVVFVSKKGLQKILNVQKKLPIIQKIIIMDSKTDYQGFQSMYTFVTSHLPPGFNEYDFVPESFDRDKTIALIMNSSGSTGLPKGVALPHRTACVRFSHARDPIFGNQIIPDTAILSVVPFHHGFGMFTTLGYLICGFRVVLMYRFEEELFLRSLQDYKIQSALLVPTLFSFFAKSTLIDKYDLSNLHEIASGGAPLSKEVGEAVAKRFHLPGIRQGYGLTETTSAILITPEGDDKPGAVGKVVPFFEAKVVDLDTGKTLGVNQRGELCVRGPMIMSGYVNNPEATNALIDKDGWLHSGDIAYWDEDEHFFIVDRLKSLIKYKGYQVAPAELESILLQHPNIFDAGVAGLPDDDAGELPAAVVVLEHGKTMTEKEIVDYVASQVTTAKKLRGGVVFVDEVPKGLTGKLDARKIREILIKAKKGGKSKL

B1: HSP18.1 from Pisum sativum (pea) (natural protein, UniProt P19243 1-158, looked up)
chain: MSLIPSFFSGRRSNVFDPFSLDVWDPLKDFPFSNSSPSASFPRENPAFVSTRVDWKETPEAHVFKADLPGLKKEEVKVEVEDDRVLQISGERSVEKEDKNDEWHRVERSSGKFLRRFRLPENAKMDKVKASMENGVLTVTVPKEEIKKAEVKSIEISG
stoichiometry N [1]: 19.4 ± 0.4 subunits of HSP18.1 per Luc
ratio of complexes [Target]1:[Target]2 [2]: 1.1 [Target]2 per [Target]1
ratio of complexes [Target]1:[Target]2 [3]: 1.6 [Target]2 per [Target]1
ratio of complexes [Target]1:[Target]2 [4]: 2.9 [Target]2 per [Target]1
ratio of complexes [Target]1:[Target]2 [5]: 2.2 [Target]1 per [Target]2
ratio of complexes [Target]1:[Target]2 [6]: 1.9 [Target]2 per [Target]1
ratio of complexes [Target]1:[Target]2 [7]: 2 [Target]2 per [Target]1
